Results reported in the supplement of paper PMC9170038.

System: MS2 coat protein
Assay: apparent KD of MS2 coat protein; higher = weaker reporter binding
Details: Eterna round: R107; input ligand: theophylline 2 mM
Procedure, shortened: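 Designed RNA switches were made by on-chip transcription from Illumina sequencing clusters and then titrated with SNAP-549-labelled MS2 coat protein. Twofold steps ran from 0.7 or 1.5 nM to 3 µM, each lasting 0.8–1.5 h early and 10–20 min late, in 100 mM Tris-HCl pH 7.5, 80 mM KCl, 4 mM MgCl2, without or with constant ligand. Apparent KD is the per-design median of normalised cluster binding-curve fits.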

| Sequence | apparent KD of MS2 coat protein |
| --- | --- |
| CAGUGAGAACGAAGGAGCGCUGAAUGAUGUGGACAUGAGGAUCACCCAUGUUAAGUCCAAUGGCAGGUAGGUCGCGUAACACUAG [Same State - Arginine B] | 12.7 nM |
| AAACUGAUCUUCAGGAGUCACUAUAUCUCCCGAGGACCGGUACGGCCGCCACUCGAACGUUUACAUGAGGAUCACCCAUGUGACU [theeternabot_exclusion_MS2_Trp_A_4] | 14.9 nM |
| CUCAUCCACGCGGCCGCCACUAUAUUGUGGUGUGAAUGUGUCGUAAUACAUGAGGAUCACCCAUGUAGGACCGGGCGUGGAUGAG [#08 Exclusion Tryptophan B] | 37.4 nM |
| UGUACCAUGUCGGCCGCCACUUGAAAUAAACAAGAGGAUCACCCUUGUGACGUCAAAGACGUCUCAAGGACCGGGACAUGGUACU [TryBS Zipper #StaticStem #Zipper] | 357 nM |
| CGGGUUCGGGCGGCCGCCACUUUGAUUGGGUGUGACAUGAGGAUCACCCAUGUUGUGGGUGAUCGGAGGACCGGGUUUGGGCUUG [Fidorka] | 744 nM |
| AUACAUGAGGAUCACCCAUGUUAUAGUGAAGGAGCGACGUUUAUGUCAGGUAGGUCGCACUGUUGUUUAAUGAUUCUUGGAUCUU [#21 Exclusion - Arginine A] | 13.5 nM |
| ACAUGAGGAUCACCCAUGUAUGAUGUUCCUCGAGGACCGGUACGGCCGCCACUCGAACGAGUGGCGCGCGAGUGCGCACUCGCGC [aWa] | 16.8 nM |
| ACAUGAGGAUCACCCAUGUAAAUAACGGAAGGAGCGUGCGAAAGCACAGGUAGGUCGCCGAUAUAAAUAUUGGGUAUUAUAUUAU [#28 Exclusion - Arginine A] | 29.1 nM |

Same assay, conditions: Eterna round: R107; input ligand: tryptophan 2.4 mM

| Sequence | apparent KD of MS2 coat protein |
| --- | --- |
| UGUAACAUGAGGAUCACCCAUGUGAGUGAUACCAGACUAGUAUUAGUCCCUUGGCAGCACGCUGGGCGAGUGUAUAGUCUAUGCG [Same State - Theophylline A (Freestyle 15)] | 75.5 nM |
| AUCGUACCUGAGGAUACCAGCAUGUGAUCAUAACAUGAGGAUCACCCAUGUAAUCAGUGAUGCCCUUGGCAGCUUGGUCGGUACA [Same State - Theophylline B (Freestyle 10)] | 44.2 nM |
| CAUAUUGUAACUGAUACCAGUGUACUGACAUGAGGAUCACCCAUGUUGGGUUUUGUUGUACACCCUUGGCAGCAGAAUCAAUAUG [AstrosExyTheB#4] | 60.4 nM |
| CUCUCAUGAACAUGAGGAUCACCCAUGUAACGAGGACCGGUACGGCCGCCACUCGAACGUGGAUACCAAUCGAGUGGGUGAGAGA [Tryp A Ex t5] | 80.1 nM |
| UGACAUUGCUCAGAUACCAGACAUGAGCAUCAGCCAUGUGCCAACAAGUACAUAAUAAAUGUCCCUUGGCAGCUGAGCAAUGUCU [TheoBX 16 #MS2Left #Theo2 #AlternativeMS2] | 12.7 nM |
| UAUGCACAUGAGGAUCACCCAUGUAUGGAAGGAGCGGUGAAUAAACCAGGUAGGUCGCCAUUGUGAGGGUCAUCUAUGUAAUCGU [Exclusion - Arginine A (Freestyle 4)] | 91.8 nM |
| AGACAUGAGGAUCACCCAUGUAGUAUGGAUACCAGAUGUAGAUUAGUCCCUUGGCAGCUGUGCUGAAGUGAUGCAUUGCUCCUAG [#15 Exclusion-TheophyllineA] | 23.6 nM |
| AUAUGAUCAUGUGAUACCAGAAAUGGUAGUCUUCACUGGAUUACAUGAGGAUCACCCAUGUUCCCUUGGCAGCAUAUGAUCAUAU [#03 Exclusion-TheophyllineB] | 43.9 nM |
| UGACAUUGCUCAGAUACCAGACAUGAGGAUCACCCAUGUACCAAGGUACGAAAAUAACAUGUCCCUUGGCAGCUGAGCAAUGUCU [First try 2 #MS2Left #Theo2] | 12.4 nM |
| UGUAUGGACUGAAGGAGCGGAUGAUAUCAUGAGGAUCACCCAUGGAAUAAGGCGAAAGCCAUCCAGGUAGGUCGCAGUCCAUACU | 82.4 nM |
| CAAUUUAGAAAACUAAAUUGAGUGGGUGAACGAGGACCGGUACGGCCGCCACUCGGACAUGAGGAUCACCCAUGUCCAUGUGAAA [AstrosExyTryA#23] | 29.2 nM |
| ACUCGGUAUGUCUAAUACCGAGAGUAUGAUACCAGUAUGGUGACAUACCCUUGGCAGCAUGGGACAUGAGGAUCACCCAUGUGUU [SSThA NP+V+V2 #10 Same Structure] | 588 nM |
| ACUAGUUGUGCAGAUACCAGGCACGAGGAUCACCCGUGUUUGGGAUGUUCGCAUCUUCCUGUCCCUUGGCAGCUGUACAUCUAGA [Omei Theo B Exc v9] | 37.4 nM |
| GUAUCUAUGUGAAAUAGAUAUAUAACUGAAGGAGCGUCAUUAAGGACAGGUAGGUCGCAGAGCACCUGAGGAUCACCCAGGUAGG [Arg A SS s1] | 27.2 nM |
| UACUUGCUGACGGCCGCCACUAGAACAUGAGGAUCACCCAUGUAUGGCGGCCGAAUCCUCAUGACUAGGACCGGGUCAGCAAGAU [(Trp1)-(Ms2)-(T)'-(M)'-(Trp2)_Design2] | 8.22 nM |
| CCGCCCACGAAUGAUACCAGCUAAAAUCAUGUACCAGACACAUGAGGAUCACCCAUGUAAAGCCCUUGGCAGCGUACGCCACCCG [e-theoB-?] | 25.8 nM |
| ACGAUAGCACACGAGGAUCACCCGUGUGAUACCAGCCUGGAAACAGGCCCUUGGCAGCACACAAUAAAAGUGUAACUAUCGAAUA [TheoAX4 #MicroSwitchBubble #AlternativeMS2] | 56.1 nM |
| ACAUGAGGAUCACCCAUGUAUUACCGGGAAGGAGCGCGUGAAAACGCAGGUAGGUCGCUCGGCGUCGUGCUGUAAAGCACGACGA [#1 Same State - Arginine A Attempt #25 (HarryS)] | 13.4 nM |
| GCUGCUUUGGGAAGGAGCGCUGCGUUAUCAUGUUGGACAUGAGGAUCACCCAUGUAAAUGUAGCAGGUAGGUCGCUUAGGGCAGC [EAP NP+V+V2 #15] | 37.1 nM |
| UGUAUGUGAUCUGAUACCAGCUUAAUAACAUGAGCAUCAGCCAUGUGGAGCGGAAACGCUAGCCCUUGGCAGCAGAUCGCAUACU [Denovo 11 #StaticStem #AlternativeMS2] | 129 nM |
| ACGACGCAUAGUGAUACCAGCACAACAUGAGGAUCACCCAUGUCACUUAUGUAGUAAUAAUGCCCUUGGCAGCACUAUGCGUCAG [SSTheo B #1] | 52.6 nM |
| ACAUGAGGAUCACCCAUGUGAAGCAGGGUACGAGGACCGGUACGGCCGCCACUCGAGCAUUAUAACGAGUGAAUGGCAACGAUGU [whbob_Ex_trypto A_2s16] | 12.8 nM |
| CAGUGAGAACGAAGGAGCGCUGAAUGAUGUGGACAUGAGGAUCACCCAUGUUAAGUCCAAUGGCAGGUAGGUCGCGUAACACUAG [Same State - Arginine B] | 15.8 nM |
| UGUACCAUGUCGGCCGCCACUUGAAAUAAACAAGAGGAUCACCCUUGUGACGUCAAAGACGUCUCAAGGACCGGGACAUGGUACU [TryBS Zipper #StaticStem #Zipper] | 19 nM |
| CGGGUUCGGGCGGCCGCCACUUUGAUUGGGUGUGACAUGAGGAUCACCCAUGUUGUGGGUGAUCGGAGGACCGGGUUUGGGCUUG [Fidorka] | 240 nM |
| AUACAUGAGGAUCACCCAUGUUAUAGUGAAGGAGCGACGUUUAUGUCAGGUAGGUCGCACUGUUGUUUAAUGAUUCUUGGAUCUU [#21 Exclusion - Arginine A] | 16.4 nM |
| ACAUGAGGAUCACCCAUGUAUGAUGUUCCUCGAGGACCGGUACGGCCGCCACUCGAACGAGUGGCGCGCGAGUGCGCACUCGCGC [aWa] | 14.1 nM |
| AGGAACAUGAGGAUCACCCAUGUAAGCGAUACCAGUGAUAUGUUGCGCCCUUGGCAGCGCAAGUGUGUGUGAAAGAUGUAAGAUU [Eclusion - Theophylline A / A] | 16.7 nM |
| ACAUGAGGAUCACCCAUGUAAAUAACGGAAGGAGCGUGCGAAAGCACAGGUAGGUCGCCGAUAUAAAUAUUGGGUAUUAUAUUAU [#28 Exclusion - Arginine A] | 28.8 nM |
| ACGAACUGUAGUGAUACCAGACGUACAUGAGGAUCACCCAUGUUGUAAACAUGGUUAAUAGUCCCUUGGCAGCACAGUUAGUUCG [JR_ExcTheophyB_Sub002] | 695 nM |
